According to paper PMC8461249 (2021):

T1: TβRII-SE/Fc (TβRII-Soluble Endogenous fused to the human IgG1 Fc domain) (human)
T1 chain: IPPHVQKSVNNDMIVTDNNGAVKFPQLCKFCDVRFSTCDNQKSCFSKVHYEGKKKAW


What was measured:
Test in all cases: SPR
1D11 = molecular target: 1D11
[1] = molecular target: T2, TβRII-Fc (TβRII extracellular domain fused to human IgG1 Fc) (human, UniProt P37173-1 23-166)
[2] = molecular target: T1, TβRII-SE/Fc (TβRII-Soluble Endogenous …)
[3] = molecular target: T2, TβRII-Fc (TβRII extracellular domain …); remark: listed apart in the source
[4] = molecular target: T1, TβRII-SE/Fc (TβRII-Soluble Endogenous …)

T2 sequence (P37173 23-166): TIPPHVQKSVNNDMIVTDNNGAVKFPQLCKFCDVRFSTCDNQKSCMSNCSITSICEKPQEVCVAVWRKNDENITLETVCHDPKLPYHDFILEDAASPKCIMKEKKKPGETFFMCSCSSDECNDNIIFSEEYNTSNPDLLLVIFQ

Row | Kd (1D11) [nM] | koff (1D11) [s⁻¹] | Kd [1] [nM] | Kd [2] [nM] | koff [3] [s⁻¹] | koff [4] [s⁻¹] | Binder
1 | 0.068 | 0.00012 | 0.137 | 0.093 | 0.00116 | 0.00018 | TGF-β3 (ligand) ALDTNYCFRNLEENCCVRPLYIDFRQDLGWKWVHEPKGYYANFCSGPCPYLRSADTTHSTVLGLYNTLNPEASASPCCVPQDLEPLTILYYVGRTPKVEQLSNMVVKSCKCS
2 | 0.33 | 0.0015 | 9.5 | 0.674 | 0.0197 | 0.00067 | TGF-β2 (ligand) ALDAAYCFRNVQDNCCLRPLYIDFKRDLGWKWIHEPKGYNANFCAGACPYLWSSDTQHSRVLSLYNTINPEASASPCCVSQDLEPLTILYYIGKTPKIEQLSNMIVKSCKCS
